This is an account of results in paper PMC2118669.

This assay has as its target recombinant AIF (UniProt Q9Z0X1). The assay can be described thus: SPR.
UniProt Q9Z0X1, sequence (Q9Z0X1 102-612): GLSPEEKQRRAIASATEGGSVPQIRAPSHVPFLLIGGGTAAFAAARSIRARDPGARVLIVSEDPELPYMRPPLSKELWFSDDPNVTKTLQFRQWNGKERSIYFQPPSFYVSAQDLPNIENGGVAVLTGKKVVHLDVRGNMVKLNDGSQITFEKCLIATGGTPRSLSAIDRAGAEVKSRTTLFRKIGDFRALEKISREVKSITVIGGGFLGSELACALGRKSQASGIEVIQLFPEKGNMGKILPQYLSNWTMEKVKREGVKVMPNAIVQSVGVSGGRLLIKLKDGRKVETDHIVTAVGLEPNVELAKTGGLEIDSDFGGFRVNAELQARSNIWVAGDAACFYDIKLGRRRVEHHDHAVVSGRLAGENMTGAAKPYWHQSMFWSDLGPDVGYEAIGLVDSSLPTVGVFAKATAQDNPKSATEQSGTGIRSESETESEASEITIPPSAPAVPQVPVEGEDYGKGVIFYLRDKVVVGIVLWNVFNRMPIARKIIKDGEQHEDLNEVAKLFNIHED

Take “recombinant CypA (from UniProt P62937 1-165) (natural protein)”: the response (RU) on injection of 25 nM CypA is 123 RU.
